Reference: PMC5484391 (Cell, 2017)

Molecular target: the molecule itself
Test: cryo-EM structure

B1: hERGTs (human hERG, truncated construct lacking residues 141–380 and 871–1005) (natural protein, UniProt Q12809 1-1159, looked up)
chain: MPVRRGHVAPQNTFLDTIIRKFEGQSRKFIIANARVENCAVIYCNDGFCELCGYSRAEVMQRPCTCDFLHGPRTQRRAAAQIAQALLGAEERKVEIAFYRKDGSCFLCLVDVVPVKNEDGAVIMFILNFEVVMEKDMVGSGADVLPEYKLQAPRIHRWTILHYSPFKAVWDWLILLLVIYTAVFTPYSAAFLLKETEEGPPATECGYACQPLAVVDLIVDIMFIVDILINFRTTYVNANEEVVSHPGRIAVHYFKGWFLIDMVAAIPFDLLIFGSGSEELIGLLKTARLLRLVRVARKLDRYSEYGAAVLFLLMCTFALIAHWLACIWYAIGNMEQPHMDSRIGWLHNLGDQIGKPYNSSGLGGPSIKDKYVTALYFTFSSLTSVGFGNVSPNTNSEKIFSICVMLIGSLMYASIFGNVSAIIQRLYSGTARYHTQMLRVREFIRFHQIPNPLRQRLEEYFQHAWSYTNGIDMNAVLKGFPECLQADICLHLNRSLLQHCKPFRGATKGCLRALAMKFKTTHAPPGDTLVHAGDLLTALYFISRGSIEILRGDVVVAILGKNDIFGEPLNLYARPGKSNGDVRALTYCDLHKIHRDDLLEVLDMYPEFSDHFWSSLEITFNLRDTNMIPGGRQYQELPRCPAPTPSLLNIPLSSPGRRPRGDVESRLDALQRQLNRLETRLSADMATVLQLLQRQMTLVPPAYSAVTTPGPGPTSTSPLLPVSPLPTLTLDSLSQVSQFMACEELPPGAPELPQEGPTRRLSLPGQLGALTSQPLHRHGSDPGS
binding result: binds
